Measured values reported in patent US10654939 (BEIJING MABWORKS BIOTECH, dated 2020).
Positions count from the first letter of the chain named.

T1: rhesus CD40 expressed on HEK293A cells (rhesus monkey, UniProt P25942 21-277 (human entry))
T1 construct: also called HEK293A/rhesusCD40
T1 chain: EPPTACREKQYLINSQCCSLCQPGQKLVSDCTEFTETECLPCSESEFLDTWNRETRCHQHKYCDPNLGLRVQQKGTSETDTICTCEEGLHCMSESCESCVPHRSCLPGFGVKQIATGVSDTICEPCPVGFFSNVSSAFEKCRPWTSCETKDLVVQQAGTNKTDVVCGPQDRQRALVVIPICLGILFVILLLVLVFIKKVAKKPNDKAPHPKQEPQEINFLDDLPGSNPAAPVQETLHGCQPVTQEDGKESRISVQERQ

B1: chimeric 7B4 antibody (antibody, human IgG2, kappa, V domains shown)
VH: EVQLQESGPGLVKPSQSLSLTCSVTGYSITTNYYWNWIRQFPGNKLEWMGYIKYDGSNNYNPSLKNRISITRDTSKNQFFLKLNSVTTEDTATYYCARLDYWGQGTSVTVSS
VL: DIVLTQSPLSLPVSLGDQASISCRSSQSLENSNGNTFLNWFLQKPGQSPQLLIYKVSNRFSGVLDRFSGTGSGTDFTLTISRVEAEDLGVYFCLQVTHVPFTFGSGTKLEIKR
notes: Mouse variable regions with human IgG2/kappa constant regions
B2: chimeric 16A6 antibody (antibody, human IgG2, kappa, V domains shown)
VH: B1 VH with Q5E, E6Q, Y34H
VL: B1 VL with P8T, P12S, F76L
notes: as for B1
B3: chimeric 77D9 antibody (antibody, human IgG2, kappa, V domains shown)
VH: QVKLEESGGGLVKPGGSLKLSCAASGFTFRNYAMSWVRQSPGERLEWVAEVSGSGYYTYYPDTVTGRFTISRDNANNTLYLEVSSLRSEDTAMYYCTSRAYWGQGTLVTVSA
VL: IVMTQSPTLSLPVSLGDQASISCRSSQSIVLTNGNTYLEWYLQRPGQSPKLLIYKVSNRFSGVPDRFSGSGSGTDFTLKISRVEAEDLGVYYCFQGSHVPYTFGGGTKLEIKR
notes: as for B1
B4: chimeric 29A10 antibody (antibody, human IgG2, kappa, V domains shown)
VH: QVKLEQSGGGLVKPGGSLKLSCAASGFTFSHYYMYWVRQTPEKRLEWVATISDAGSYTYYSDSVKGRFTISRDNAKNNLYLQMSSLKSDDTAMYFCARTYYRGDGGYWFFDVWGAGTAVTVSS
VL: DIVITQSTSSLAVSVGEKVTMSCESSQSLLYSSNQKNYLAWYQQKPGQSPKLLIYWASTRESGVPDRFTASGSGTDFTLTISSVKAEDLAVYYCQQYYRSPLTFGAGTKLELKR
notes: as for B1
B5: chimeric 50F6 antibody (antibody, human IgG2, kappa, V domains shown)
VH: QVQLEQSGDDLVKPGASVKLSCKASGYTFTTYWINWIKQRPGQGLEWIGRISPGSGSTHYNEMFKGKATLTVDTSSSTAYIQLSSLSSEDSAVYFCTRNDYWGQGTTLTVSS
VL: DIVLTQSPLSLPVSLGDQASISCRSSQSIVNSNGNTYLEWYLQKPGQSPKLLIYKVSNRFSGVPDRFSGSGSGTDFTLKISRVEAEDLGVYYCFQGSHVPLTFGAGTKLELKR
notes: as for B1
B6: 13A2-VH2VL2 (antibody, human IgG2, kappa, V domains shown)
VH: QVQLQESGPGLVKPSDTLSLTCAVSGYSITTNYYWNWIRQPPGKGLEWMGYINYDGSNNYNPSLKNRITISVDTSKNQFSLKLSSVTAVDTAVYYCARLDYWGQGTLVTVSS
VL: DVVLTQSPLSLPVTLGQPASISCRSSQSLENSNGNTFLNWFQQRPGQSPRLLIYKVSNRFSGVPDRFSGSGSGTDFTLKISRVEAEDVGVYYCLQVTHVPFTFGQGTKLEIKR
notes: Humanized, human IgG2/kappa
B7: 7B4-VH0VL0 (antibody, human IgG2, kappa, V domains shown)
VH: B6 VH with M49I, N53K, I68V, I70M
VL: B6 VL with L4M, L51R
notes: Humanized, human IgG2/kappa
B8: 7B4-VH3VL2 (antibody, human IgG2, V domains shown)
VH: B6 VH with K44N, G45K, N53K
VL: B6 VL
notes: Humanized, human IgG2/kappa
B9: 7B4-VH3VL3 (antibody, human IgG2, V domains shown)
VH: B6 VH with K44N, G45K, N53K
VL: B6 VL with Y92F, Q105S
notes: Humanized, human IgG2/kappa
B10: 7B4-VH2VL3 (antibody, human IgG2, kappa, V domains shown)
VH: B6 VH with N53K
VL: B6 VL with Y92F, Q105S
notes: Humanized, human IgG2/kappa
B11: 13A2-VH2VL3 (antibody, human IgG2, kappa, V domains shown)
VH: B6 VH
VL: B6 VL with Y92F, Q105S
notes: Humanized, human IgG2/kappa
B12: 13A2-VH0VL0 (antibody, human IgG2, kappa, V domains shown)
VH: B6 VH with M49I, I68V, I70M
VL: B6 VL with L4M, L51R
notes: Humanized, human IgG2/kappa
B13: chimeric 142F7 antibody (antibody, human IgG2, kappa, V domains shown)
VH: EVQLEQSGAELVRPGTSVKVSCKASGYAFTNYLIEWGIQRPGQGLEWIGVINPGTGGTNYNEKFKDKATLTTDKSSSTAYMQLSSLTSDDSAVYFCARGGSGFAYWGQGTLVTVSA
VL: DIVLTQTTSSLSASLGDRVTISCRASQDINNYLNWYQQKPDGTVKLLIYYTSRLHSGVPSRFSGSGSGTDYSLTISNLEQEDIATYFCQQGNTLPWTFGGGTKLEIKR
notes: as for B1
B14: chimeric 92F6 antibody (antibody, human IgG2, kappa, V domains shown)
VH: QVQLEQSGAEVVKPGASVKVSCTASGFNIKDTYMHWVKQRPEQGLEWIGRIDPANGNTNYDPKFQGKATITADTSSNTGYLQLSSLTSEDTAVYYCSRWGYDWYFDVWGAGTSVTVSS
VL: DIVITQSTAIMSASPGEKVTITCSASSSVSYIHWFQQKPGTSPKLWIYTTANLASGVPARFSGSGSGTSYSLTISRMEAEDAATYYCQQRSNYPFTFGSGTKLEIKR
notes: as for B1

What was measured:
[1] = molecular target: T2, recombinant human CD40 (ECD)-his (human, UniProt P25942 21-193); assay: SPR (Biacore 8K), hCD40(ECD)-his coupled to chip, antibody injected
T2 construct: Bought protein; also called hCD40(ECD)-his; TNFRSF5
T2 sequence (P25942 21-193): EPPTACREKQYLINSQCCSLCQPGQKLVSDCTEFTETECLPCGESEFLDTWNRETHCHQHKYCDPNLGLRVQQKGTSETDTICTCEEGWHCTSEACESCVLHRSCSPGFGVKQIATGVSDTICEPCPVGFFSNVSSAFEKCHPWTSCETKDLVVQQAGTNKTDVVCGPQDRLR
Experimental: SPR assays were used to determine the binding affinity of the chimetic or humanized anti-CD40 antibodies to human CD40 with the BIAcore™ 8K instrument (GE Life Sciences). Briefly, 100-200 response units (RU) of human CD40 (ECD)-his protein (Sino Biological, CN, Cat #: 10774-H08H) were coupled to CM5 biosensor chips (Cat #: BR-1005-30, GE Life Sciences), followed by blocking of un-reacted groups with 1M ethanolamine. Serially diluted antibodies at concentrations ranging from […] were injected into the SPR running buffer (HBS-EP buffer, pH7.4, GE Life Sciences; US; Cat #: BR-1006-69) at 30 μL/minute. The binding capacity was calculated with the RUs of blank controls subtracted. The association rate (k_a) and dissociation rate (k_d) were calculated using the one-to-one Langmuir binding model (BIA Evaluation Software, GE Life Sciences). The equilibrium dissociation constant K_D was calculated as the k_d/k_a ratio.

[2] = molecular target: T3, mouse CD40 expressed on HEK293A cells (mouse, UniProt P27512 20-289); assay: FACS, HEK293A/mouseCD40 cells
T3 construct: also called HEK293A/mouseCD40
T3 sequence (P27512 20-289 limits assumed): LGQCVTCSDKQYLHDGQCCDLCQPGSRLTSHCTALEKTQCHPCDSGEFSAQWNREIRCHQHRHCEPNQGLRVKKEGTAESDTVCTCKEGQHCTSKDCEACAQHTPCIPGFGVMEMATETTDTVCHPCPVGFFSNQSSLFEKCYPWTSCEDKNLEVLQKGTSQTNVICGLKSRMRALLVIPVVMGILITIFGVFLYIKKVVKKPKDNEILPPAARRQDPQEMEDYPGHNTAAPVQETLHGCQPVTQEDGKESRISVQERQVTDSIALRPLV

[3] = molecular target: T1, rhesus CD40 expressed on HEK293A cells; assay: FACS on HEK293A/rhesus CD40 cells, serially diluted antibody (Example 14, protocol of Example 5)
Experimental: Example 5 Mouse Anti-CD40 Monoclonal Antibodies Bound to Human and Rhesus CD40 Expressed on HEK293A Cells To further determine whether anti-CD40 antibodies bound to human, monkey or mouse CD40 expressed on HEK293A cells, a cell-based binding assay by FACS was performed using the HEK293A cells stably overexpressing human, monkey or mouse CD40 as generated in Example 1, respectively. Briefly, 10^5 HEK293A cells were seeded into each well of the 96-well plates and serially diluted anti-CD40 antibodies were added to the plates. After incubated at 4° C. for 1 hour, plates were washed 3 times with PBST. Then, an APC coupled Goat Anti-Mouse IgG (BioLegen, US, Cat #: 405308) diluted 500× was added to the plates. After incubation at 4° C. for 1 hour, the plates were washed with PBS for 3 times and then cell fluorescence was monitored using a FACS machine (BD).
The chimeric and humanized anti-CD40 antibodies were further characterized for their ability of binding to HEK293A/humanCD40 cells and HEK293A/rhesus CD40 cells, following the protocols described in Example 5. They were also tested for their ability to activate CD40 signaling in HEK-Blue assay, and to promote dendritic cell maturation, following the protocols in Example 7 and Example 9, respectively, the dendritic cells collected form three healthy human donors. IL-12(p40) secretion by the dendritic cells was measured by using human IL12(p40) ELISA kit (BD, US, Cat #: 551116) following themanufactor's instruction.

Binder	Kd [1] [nM]	koff [1] [s⁻¹]	kon [1] [M⁻¹ s⁻¹]	binding result [2]	binding result [3]	EC50 (read off the curve) [3] [µg/mL]
B1	3.6	0.0036	1e+06	no binding		
B2				no binding		
B3				no binding		
B4				no binding		
B5				no binding		
B6	2.08	0.00171	823000		binds	
B7	2.47	0.0068	2.75e+06			~0.2
B8	4.2	0.00615	1.46e+06			~0.2
B9	2.99	0.00488	2.13e+06			~0.2
B10	3.6	0.00639	1.78e+06			~0.2
B11	3.55	0.00261	735000		binds	
B12	28.8	0.0114	396000		binds	
B13				no binding		
B14				no binding		
